The target of data set [1] is FadE1 (PA0506), fatty acyl-CoA dehydrogenase of Pseudomonas aeruginosa (Pseudomonas aeruginosa PAO1). In words: AUC; sedimentation at 50000 rpm, 20 °C; protein at 1 mg/mL in 20 mM Tris-HCl, 100 mM NaCl, 10 mM imidazole (pH 7.5); absorbance and interference scans; analysis with SEDFIT; His6 tags removed.
Data set [2] deals with T1, CCCCCCCC(=O)SCCNC(=O)CCNC(=O)[C@H](O)C(C)(C)COP(=O)(O)OP(=O)(O)OC[C@H]1O[C@@H](n2cnc3c(N)ncnc32)[C@H](O)[C@@H]1OP(=O)(O)O.
T1 construct: full-length ORF, His6 tag removed by TEV
Put plainly: purified protein. In kind it is biochemical, Pseudomonas aeruginosa. Particulars: FAD sandwiched between catalytic Glu441 and the FAD.

The test system of data set [3] is T2, CCCCCCCCCCCCCCCC(=O)SCCNC(=O)CCNC(=O)[C@H](O)C(C)(C)COP(=O)(O)OP(=O)(O)OC[C@H]1O[C@@H](n2cnc3c(N)ncnc32)[C@H](O)[C@@H]1OP(=O)(O)O.
T2 construct: full-length ORF, His6 tag removed by TEV
Put plainly: Michaelis-Menten kinetics of purified enzyme (KM). In kind it is biochemical, Pseudomonas aeruginosa. The conditions noted are these: FAD.

In data set [4] the target is FadE2 (PA0508), fatty acyl-CoA dehydrogenase of Pseudomonas aeruginosa (Pseudomonas aeruginosa PAO1). In words: AUC; sedimentation at 50000 rpm, 20 °C; protein at 1 mg/mL in 20 mM Tris-HCl, 100 mM NaCl, 10 mM imidazole (pH 7.5); absorbance and interference scans; analysis with SEDFIT; His6 tags removed.

Consider three substances from article PMC11890623, “Pseudomonas aeruginosa acyl-CoA dehydrogenases and structure-guided inversion of their substrate specificity” (Nature Communications, 2025).

By stoichiometry N is commonly meant a count of units in the complex or per binding partner. As usually defined, the Km is the concentration of substrate that gives half-maximal velocity.

For “FadE1 (PA0506), fatty acyl-CoA dehydrogenase of Pseudomonas aeruginosa (enzyme)”, in data set [1], the stoichiometry N was 2. Turning to FadE1 (Pseudomonas aeruginosa PAO1), the Km in data set [2] turned out to be 12.29 ± 1.43 µM; in data set [3], 16.36 ± 2.09 µM. The substance “FadE2 (PA0508), fatty acyl-CoA dehydrogenase of Pseudomonas aeruginosa (enzyme)” yielded a stoichiometry N in data set [4] of 2.
